Experimental data published in US20080075726A1 (VACCINEX, published 2008).
Positions count from the first letter of the chain named. Each block holds one binder with its values, some of them ahead of it.

Assays:
recombinant human IL-6 [1] = biological target: T1, recombinant human IL-6 (human, UniProt P05231 30-212, limits assumed); experiment: competition ELISA, rhIL-6 in solution against captured IL-6
T1 construct: also called rhIL6; human recombinant IL-6
Protocol: (§1) Briefly, plates were coated with 2 μg/ml of mBE4 capture antibody in coating buffer, 100 μl per well. The plates were incubated overnight. Next, the plates were washed 3 times and tapped dry. The plates were then blocked with 200 μl per well of Assay Diluent or 10% FBS in PBS and incubated for 2 hours. […] The reaction was left at RT for 3-4 hours. […] Next, the plates were washed 3 times and tapped dry. […] The plates were incubated for 1-2 hours. The plates were washed 3 times and tapped dry. […] The plates were incubated at RT for 2 hours. (Therefore, any unbound mAb at this point will be measured by ELISA). Plates were then washed 5 times and tapped dry. 100 μl of detection Ab goat anti-human IgG F(ab)′2-HRP (Jackson lab) was added at 1:20,000 dilutions or 1:40,000 dilutions (depending on lot) and the plates were incubated for 1-2 hours. The plates were washed 7 times and tapped dry. Next, the Developer Substrate (equal parts of each reagent in the kit) was pre-mixed and allowed to warm to room temperature before use. Then 100 μl of Developer was added to each well. The plates were allowed to develop for 15 minutes un-sealed in a drawer in the dark. Finally, developing was stopped by adding 100 μl of 2N H₂SO₄ to each well and plates were read as Endpoint at 450 nm-[…].

recombinant human IL-6 [2] = biological target: T1, recombinant human IL-6; experiment: Biacore 2000, mAb captured on anti-human IgG CM5 chip, human IL-6 40-1.25 nM injected
Protocol: (§2) IC50 ELISA was performed as described above. Affinity analysis by Biacore was performed according to manufacturer protocols using HBS-EP buffer (Biacore AB).

recombinant human IL-6 [3] = biological target: T1, recombinant human IL-6; experiment: competition ELISA, rhIL-6 in solution against captured IL-6 (Affinity (nM) by IC50 ELISA)
Protocol: as §1, §2

recombinant rat IL-6 = biological target: T2, recombinant rat IL-6 (rat, UniProt P20607 25-211); experiment: ELISA on coated rat IL-6; human mAbs detected with rabbit anti-human IgG-HRP; series 100, 50, 25, 12.5 ng/ml (antibody by paragraph 42; headed mIL-6 (ng/ml) on the sheet)
T2 sequence (looked up): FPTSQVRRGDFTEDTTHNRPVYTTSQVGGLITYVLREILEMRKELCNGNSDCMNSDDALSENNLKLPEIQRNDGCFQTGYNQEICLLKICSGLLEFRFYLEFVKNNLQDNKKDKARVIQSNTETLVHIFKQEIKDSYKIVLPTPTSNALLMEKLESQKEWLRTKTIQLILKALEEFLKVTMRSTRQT
Protocol: (§3) For sample “0,” no antibody was added. […] Each column represents a mean of two experiments +/− standard deviation.
(§4) For experiments using human monoclonal antibodies, IgG1 Kappa (human myeloma IgG1; Sigma-Aldrich Co.) mAb was used as a control. Rabbit anti-human IgG-HRP (Dako) was added at a dilution of 1/10,000 at 100 μl/well for detection of mAbs. […] For pAbs, Streptavidin-HRP (Prozyme) was added for detection at 100 μl/well. Antibodies were applied at concentrations of 12.5, 25, 50, and 100 ng/ml.

recombinant murine IL-6 = biological target: T3, recombinant murine IL-6 (murine, UniProt P08505 25-211); experiment: ELISA on coated murine IL-6; human mAbs detected with rabbit anti-human IgG-HRP; series 100, 50, 25, 12.5 ng/ml (antibody by paragraph 42; headed mIL-6 (ng/ml) on the sheet)
T3 sequence (looked up): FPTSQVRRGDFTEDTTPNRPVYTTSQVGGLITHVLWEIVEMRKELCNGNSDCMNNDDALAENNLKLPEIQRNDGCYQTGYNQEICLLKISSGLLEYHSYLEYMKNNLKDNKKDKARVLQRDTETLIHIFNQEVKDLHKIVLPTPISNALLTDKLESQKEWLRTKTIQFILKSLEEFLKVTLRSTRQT
Protocol: as §3, §4

recombinant human IL-6 [4] = biological target: T1, recombinant human IL-6; experiment: flow cytometry blocking assay: biotinylated rhIL-6 (12 ng/ml on the sheet; 12.5 ng/ml in paragraph 183) pre-incubated with the mAb, then U266 cells bearing IL-6 receptor added; cell-bound IL-6 shown with streptavidin-PE; readout % inhibition
Protocol: FcR-blocked U266 cells (about 250,000 cells) were then added and co-incubated for another 30 min on ice. […] After washing, the cells were analyzed by flow cytometry.

- IC50 (recombinant human IL-6 [1]): 0.07 nM
- Kd (recombinant human IL-6 [2]): 0.13 nM
- IC50 (recombinant human IL-6 [3]): 0.033 nM
- binding result (recombinant rat IL-6): no binding (tested: 100 ng/ml)
B1: mAb 926 (antibody, human IgG1, kappa, V domains shown)
VH: QVTLKESGPTLVKPTQTLTLTCSFSGFSLSTSGVGVGWVRQPPGKALEWLAFIFWDDDKYYSPSLESRLTITKDTSKNQVVLTMTNMDPVDTATYYCARSADDYLYYALDYWGQGTLVTVSS
VL: DIQMTQSPSSLSAFVGDGVTMTCWASQSINDYLNWYHQRPGEAPELLVFAASNLQIGVPSRFRGSGSETYFTLTINSLQPEDSGTYFCQNGHSFPLTFGGGTKLEIKR
- binding result (recombinant murine IL-6): no binding (tested: 100 ng/ml (Ab: 0.1 µg/ml in the title))

- IC50 (recombinant human IL-6 [1]): 5.5 nM
B2: mAb 246 (antibody, V domains shown)
VH: B1 VH with S23T, G35A, V39I, F52L, Y60H, E66K, A101Y
VL: EIVLTQSPGTLSLSPGERATLSCRASQTIDSSYLAWYQQKPGQAPRLLVYGASSRATGIPDRFSDSGSGTDFTLTISRLEPEDFAVYYCQQYAKSPITFGQGTKLE

- IC50 (recombinant human IL-6 [1]): 11.5 nM
B3: mAb 297 (antibody, V domains shown)
VH: B1 VH with S23T, G35A, V39I, F52L, Y60H, E66K, A101Y
VL: DIQMTQSPSSLSASVGDSVTITCRASQTISDFLNWYQQKPGKAPKLLIHASSNLQSGVPSRFSGSGSGTDFTLTISDLQPEDFATYSCQQTYSTLGTFGQGTRLE

- IC50 (recombinant human IL-6 [1]): 2 nM
B4: mAb 248 (antibody, V domains shown)
VH: B1 VH with S23T, G35A, V39I, F52L, Y60H, E66K, A101Y
VL: DIVMTQSPSSLSASVGDRVTITCRASQTISSYLNWYQQKPGKPPKLLIYAASSLESGVPSRFSGSGSGTEFTLTISSLQPEDLATYYCQQANSFPLTFGGGTKLE

- IC50 (recombinant human IL-6 [1]): 4 nM
B5: mAb 247 (antibody, V domains shown)
VH: B1 VH with S23T, G35A, V39I, F52L, Y60H, E66K, A101Y
VL: DVVMTQSPSSVSASVGDRVTITCRASQDIDNFLAWYQQKPGKAPNLLIYKVSSLRSGVPSRFSGSRSGTDFTLTITSLQPEDFATYFCQQTRRFPLTFGPGTKLE

- IC50 (read off the curve) (recombinant human IL-6 [4]): ~0.02 mg/L
B6: murine mAb B-E8 (antibody, V domains shown)
VH: QVTLKESGPGILKPSQTLSLTCSFSGFSLSTSGMGVGWIRQPSGKGLEWLAHIWWDDDKYYNPSLKSQLTISKDTSRNQVFLKITSVDTADTATYYCARSYDDYLYYALDYWGQGTSVTVSS
VL: DIVMTQSPATLSVTPGDRVSLSCRASQSISDYLHWYQQKSHESPRLLIKSVSQSISGIPSRFSGSGSGSDFTLSINSVEPEDVGVYYCQNGHSFPLTFGAGTKLELK
modifications: Biotinylated in FIG. 16.
notes: Murine anti-IL-6 antibody from which the human mAbs were derived; also called Elsilimomab

- IC50 (recombinant human IL-6 [1]): 0.5 nM
- Kd (recombinant human IL-6 [2]): 0.02 nM
- IC50 (recombinant human IL-6 [3]): 0.01 nM
- binding result (recombinant rat IL-6): no binding (tested: 100 ng/ml)
- IC50 (read off the curve) (recombinant human IL-6 [4]): ~0.02 mg/L
B7: mAb 88 (chimeric B-E8 control antibody) (antibody, V domains shown)
VH: B6 VH
VL: B6 VL
modifications: Biotinylated in FIG. 16.
notes: Chimeric form of murine B-E8; also called control mAb 88
- binding result (recombinant murine IL-6): no binding (tested: 100 ng/ml (Ab: 0.1 µg/ml in the title))

- IC50 (recombinant human IL-6 [1]): 12.9 nM
B8: mAb 181 (antibody, V domains shown)
VH: QVTLKESGPALVKPTQTLTLTCTFSGFSLTTSGMCVSWIRQPPGKALEWLALIYWDDDKRYNPSLRSRLTITKDTSKNQVVLTMTNMDPVDTATYYCARSYDDYLYYALDYWGQGTLVT
VL: B4 VL

- IC50 (recombinant human IL-6 [1]): 6.3 nM
B9: mAb 182 (antibody, V domains shown)
VH: B8 VH
VL: DIQMTQSPSSLSASVGDRVTITCRASQSISTYLNWYQQKLGKAPKLLIYAASSLQSGVPSRFSGSGSGTDFTLTISSLQPEDLATYYCQQSYRPLTFGGGTKLEIK

- IC50 (recombinant human IL-6 [1]): 1.75 nM
B10: mAb 183 (antibody, V domains shown)
VH: B8 VH
VL: DIQMTQSPSSLSASVGDSVTITCRASQSISIYLNWYQQKPGKAPDLLIYATSTLQSGVPSRFSGRGSGTHFTLTIDSLQPEDFATYYCQQTYRNLFTFGQGTKLE

- IC50 (recombinant human IL-6 [1]): 2.4 nM
B11: mAb 184 (antibody, V domains shown)
VH: B8 VH
VL: DIQMTQSPSSLSASVGDSVTVTCRASQKMRTYLHWYQQKPGKAPKLLIYDVSFLQNGVPSRFSGRASGTEFTLTISDLQPEDFATYYCQQSYDTPLTFGQGTKLEIK

- IC50 (recombinant human IL-6 [1]): 6.2 nM
B12: mAb 265 (antibody, V domains shown)
VH: B8 VH
VL: DIQMTQSPSTLSASVGDRVTITCRASQSMSDYLNWYQQKPGKAPKLLIYSASGLQSGVPSRFSGSGSGTDFTLTIINLQPEDVAAYYCQQSFSFPLTFGPGTKLEIK

- IC50 (recombinant human IL-6 [1]): 2.2 nM
B13: mAb 242 (antibody, V domains shown)
VH: QVTLKESGPTLVKPTQTLTLTCSFSGFSLSTSGVGVGWVRQPPGKALEWLAFIFWDDDKYYSPSLESRLTITKDTSKNQVVLTMTNMDPVDTATYYCARSYDDYLYYALDYWGQGTLVT
VL: B4 VL

- IC50 (recombinant human IL-6 [1]): 0.6 nM
- Kd (recombinant human IL-6 [2]): 0.3 nM
- IC50 (recombinant human IL-6 [3]): 0.056 nM
B14: mAb 416 (antibody, V domains shown)
VH: B13 VH
VL: DIQMTQSPSSLSAFVGDGVTMTCWASQSINDYLNWYHQRPGEAPELLVFAASNLQIGVPSRFRGSGSETYFTLTINSLQPEDSGTYFCQNGHSFPLTFGGGTKLEI

- IC50 (recombinant human IL-6 [1]): 0.028 nM
- IC50 (recombinant human IL-6 [3]): 0.028 nM
B15: mAb 1340 (antibody, V domains shown)
VH: B13 VH with F54W, Y101A, A108S, L109F, Y111T
VL: B14 VL with H92W

- IC50 (recombinant human IL-6 [1]): 0.047 nM
- IC50 (recombinant human IL-6 [3]): 0.047 nM
B16: mAb 1337 (antibody, V domains shown)
VH: B13 VH with F54W, Y101A, A108S, L109F, Y111T
VL: B14 VL with N90H

- IC50 (recombinant human IL-6 [1]): 0.031 nM
- Kd (recombinant human IL-6 [2]): 0.072 nM
- IC50 (recombinant human IL-6 [3]): 0.031 nM
B17: mAb 1338 (antibody, V domains shown)
VH: B13 VH with F54W, Y101A, A108S, L109F, Y111T
VL: B14 VL with N90S

- IC50 (recombinant human IL-6 [1]): 0.028 nM
- Kd (recombinant human IL-6 [2]): 0.093 nM
- IC50 (recombinant human IL-6 [3]): 0.028 nM
B18: mAb 1259 (antibody, V domains shown)
VH: B13 VH with F54W, Y101A, A108S, L109F, Y111T
VL: B14 VL
